# Reference: paper PMC5004290, “Mapping an epitope in EBNA‐1 that is recognized by monoclonal antibodies to EBNA‐1 that cross‐react with dsDNA” (Immunity, Inflammation and Disease, 2016)
# No end group written: not given here. *: point of attachment. Biotin = O=C1N[C@H]2[C@H](CS[C@H]2CCCCC(=O)*)N1
# B1: IgG monoclonal antibody 3D4 to EBNA-1 (antibody, V domains shown)
# VH: LQESGGGLVKPGGSLKLSCAASGFAFSSYDMSWVRQTPEKRLEWVATISSGGSYIYYPDSVKGRFTISRDNARNTLYLQMSSLRSEDTALYYCARPPPFYFDYWGQGTTLTVSS
# VL: TQSPLSLPVSLGEQASISCRSSQSLVHSNGNTYLHWYLQKPGQSPKLLIYKVSNRFSGVPDRFSGSGSGTDFTLKISRLEAEDLGFYFCSQTTHVPWTFGGGTK
# notes: gamma heavy chain, germline VH7183.14, JH2, 3 mutations; kappa light chain, germline bb1, JK1, 5 mutations; Mouse IgG1 kappa; also called MAb 3D4; source: hybridoma from an EBNA-1 injected mouse; IgG MAbs purified on protein G sepharose columns
# How the values were obtained:
# [1] = target: T1, Peptide GL-15 of EBNA-1 (aa 552-566) (Epstein-Barr virus (strain B95-8) …); experiment: ELISA; anti-peptide ELISA; biotinylated peptide (100 μg/ml), or mole equivalents of biotinylated PFM-15 and biotinylated EBNA-1, on streptavidin coated plates; 3D4 at 5 μg/ml in PBS, 0.1% BSA, 1 h at 37°C; details: both partners purified
# T1 construct: EBNA-1 of Epstein Barr virus, aa 552-566; it is surmised from the streptavidin format of the peptide ELISA; source: synthetic peptide
# T1 chain: GPLRESIVCYFMVFL
# [2] = target: IgM monoclonal antibody 16D2 to EBNA-1 (mouse); experiment: ELISA; peptide inhibition ELISA; 16D2 (5 μg/ml) incubated with 0.1 μg/ml to 1 mg/ml of peptide, then transferred to EBNA-1 coated plates, 1 h at 37°C
# [3] = target: IgM monoclonal antibody 16D2 to EBNA-1 (mouse); experiment: ELISA; peptide inhibition ELISA; 16D2 (5 μg/ml) pre-incubated 1 h at 37°C with 0.1 to 100 μg/ml of peptide, then transferred to dsDNA coated plates, 2 h at 37°C
# Sequence of IgM monoclonal antibody 16D2 to EBNA-1 (mouse) (heavy, as listed by the source): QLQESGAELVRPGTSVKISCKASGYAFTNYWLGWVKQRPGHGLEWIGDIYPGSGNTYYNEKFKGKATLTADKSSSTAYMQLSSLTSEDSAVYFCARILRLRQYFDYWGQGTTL
Binder,binding result [1],percent inhibition of binding to EBNA-1 at 100 μg/ml of peptide [2] [%],percent inhibition of binding to dsDNA at 100 μg/ml of peptide [3] [%]
B1,binds,–,–
Biotin-PQPGPLRESIVCYFM [Peptide PFM-15 of EBNA-1 (aa 549-563)],–,70,60
